Measurements published in patent US9808503B2, “Allergen peptide fragments and use thereof for treatment of birch pollen allergies” (ANERGIS S.A., priority 2003, dated 2017).

Columns and labels:
[1] = tested on: bee venom (BV) hypersensitive patients; test: Intradermal (ID) skin tests; type: in vivo, human; conditions: for immediate allergic reaction to intradermal injection: representative patient of peptide group (FIG. 5), 1 μg/ml each OPF, 0.01 μg/ml native PLA2
Protocol: Skin testing: ID tests with BV, PLA2 and peptides were performed as described in Müller et al., Allergy 48(14):37-46, 1993. Concentrations tested ranged from 10^−3 μg/ml to 1 μg/ml (10-fold dilution series). […] The 0.1 μg/ml concentration was defined as the end-point concentration (EPC), as higher concentrations of BV and PLA2 may induce non specific toxic reactions. See Müller et al., J. Allergy Clin. Immunol. 96:395-402, 1995.

IgE = test: In vitro IgE binding, dot blot analysis; design: species or system human; conditions: 1 μg spotted; control and peptide groups; order: OPF90-134, then OPF1-60
Protocol: Immunoblotting and dot blot analysis: Anti-BV or -PLA2 immunoblots were processed as described in Kettner et al., Clin. Experiment. Allergy 29:394-401, 1999. For dot blot analysis, 1 μg of whole BV, PLA2, OPFs or human albumin was diluted ¼ in DMSO, spotted on PVDF membranes and dried for 30 min. at 37° C. After blocking in non-fat milk 5%, further steps were performed as described in Kettner et al., Clin. Experiment. Allergy 29:394-401 1999. Dot densities were analyzed by scanning densitometry using an Advanced American Biotechnology scanner, Fullerton, Calif.

| Substance | immediate allergic reaction to intradermal injection [1] | IgE binding to the peptide (order among the three OPFs) (IgE) | ID tests ([1]; day 0, all patients in OPF and control group) |
| --- | --- | --- | --- |
| OPF1-60: PLA2 fragment amino acid sequence (60 aa), N-terminal overlapping peptide fragment of Apis mellifera PLA2 (IIYPGTLWCGHGNKSSGPNELGRFKHTDACCRTHDMCPDVMSAGESKHGLTNTASHTRLS) | absence of immediate allergic reaction |  |  |
| OPF47-99: PLA2 fragment amino acid sequence (53 aa), internal overlapping peptide fragment of Apis mellifera PLA2 (KHGLTNTASHTRLSCDCDDKFYDCLKNSADTISSYFVGKMYFNLIDTKCYKLE) | absence of immediate allergic reaction | undetectable |  |
| OPF90-134: PLA2 fragment amino acid sequence (45 aa), C-terminal overlapping peptide fragment of Apis mellifera PLA2 (LIDTKCYKLEHPVTGCGERTEGRCLHYTVDKSKPKVYQWFDLRKY) | absence of immediate allergic reaction | higher level |  |
| phospholipase A2 [native PLA2, reference compound] | positive |  | positive |
